system: Escherichia coli TOP10; test: shrunken log2 fold change of peptide-encoding DNA abundance (4.5 h post-induction vs induction); higher = less antimicrobial activity (less host growth inhibition); conditions: time post-induction: 4.5 h; library: site-saturation at positions 5, 18, 19, 20
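Also: peptides expressed intracellularly from a pBAD plasmid library in pooled LB shake-flask culture, induced with 0.3% L-arabinose, DNA abundance read by NGS, three biological replicates, DESeq2 with apeglm shrinkage.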

Row | Sequence | shrunken log2 fold change
1 | RRIRNRPPRLPRPRPRPDAMPRP | -0.0496
2 | RRIRNRPPRLPRPRPRPDAVPRP | 0.0764
3 | RRIRNRPPRLPRPRPRPDEHPRP | -0.415
4 | RRIRNRPPRLPRPRPRPDFWPRP | 0.3
5 | RRIRNRPPRLPRPRPRPDGGPRP | -0.323
6 | RRIRNRPPRLPRPRPRPDGYPRP | 0.171
7 | RRIRNRPPRLPRPRPRPDHIPRP | 0.00647
8 | RRIRNRPPRLPRPRPRPDHYPRP | -0.202
9 | RRIRNRPPRLPRPRPRPDIEPRP | 0.0309
10 | RRIRNRPPRLPRPRPRPDINPRP | -0.482
11 | RRIRNRPPRLPRPRPRPDIYPRP | -0.265
12 | RRIRNRPPRLPRPRPRPDKFPRP | -0.188
13 | RRIRNRPPRLPRPRPRPDKLPRP | -0.168
14 | RRIRNRPPRLPRPRPRPDLLPRP | -0.0183
15 | RRIRNRPPRLPRPRPRPDMSPRP | 0.000831
16 | RRIRNRPPRLPRPRPRPDPYPRP | -0.319
17 | RRIRNRPPRLPRPRPRPDQEPRP | -0.00963
18 | RRIRNRPPRLPRPRPRPDRKPRP | -0.00776
19 | RRIRNRPPRLPRPRPRPDSNPRP | -0.0886
20 | RRIRNRPPRLPRPRPRPDVGPRP | -0.251
21 | RRIRNRPPRLPRPRPRPDVVPRP | -0.0975
22 | RRIRNRPPRLPRPRPRPDWAPRP | -0.0406
23 | RRIRNRPPRLPRPRPRPEAKPRP | 0.302
24 | RRIRNRPPRLPRPRPRPECCPRP | 0.517
25 | RRIRNRPPRLPRPRPRPECGPRP | 0.445

Row | Sequence | shrunken log2 fold change
26 | RRIRNRPPRLPRPRPRPEDTPRP | -0.0307
27 | RRIRNRPPRLPRPRPRPEEIPRP | -0.000921
28 | RRIRNRPPRLPRPRPRPEFCPRP | 0.0216
29 | RRIRNRPPRLPRPRPRPEFMPRP | 0.0662
30 | RRIRNRPPRLPRPRPRPEHDPRP | 0.0627
31 | RRIRNRPPRLPRPRPRPEIIPRP | -0.00607
32 | RRIRNRPPRLPRPRPRPEKEPRP | -0.159
33 | RRIRNRPPRLPRPRPRPELFPRP | -0.0281
34 | RRIRNRPPRLPRPRPRPENMPRP | -0.262
35 | RRIRNRPPRLPRPRPRPEPNPRP | 0.0829
36 | RRIRNRPPRLPRPRPRPEPPPRP | 0.758
37 | RRIRNRPPRLPRPRPRPESCPRP | 0.073
38 | RRIRNRPPRLPRPRPRPEVDPRP | 0.478
39 | RRIRNRPPRLPRPRPRPEVFPRP | 0.0362
40 | RRIRNRPPRLPRPRPRPEVSPRP | -0.0183
41 | RRIRNRPPRLPRPRPRPEWQPRP | -0.0264
42 | RRIRNRPPRLPRPRPRPEYAPRP | -0.175
43 | RRIRNRPPRLPRPRPRPEYIPRP | -0.0947
44 | RRIRNRPPRLPRPRPRPFATPRP | -0.101
45 | RRIRNRPPRLPRPRPRPFFTPRP | -0.147
46 | RRIRNRPPRLPRPRPRPFGGPRP | -0.133
47 | RRIRNRPPRLPRPRPRPFGIPRP | -0.0138
48 | RRIRNRPPRLPRPRPRPFGPPRP | -0.406
49 | RRIRNRPPRLPRPRPRPFHHPRP | -0.27
50 | RRIRNRPPRLPRPRPRPFIKPRP | -0.473

Row | Sequence | shrunken log2 fold change
51 | RRIRNRPPRLPRPRPRPFKRPRP | 0.09
52 | RRIRNRPPRLPRPRPRPFMLPRP | -1.17
53 | RRIRNRPPRLPRPRPRPFMTPRP | -0.429
54 | RRIRNRPPRLPRPRPRPFMVPRP | -0.646
55 | RRIRNRPPRLPRPRPRPFMWPRP | -0.134
56 | RRIRNRPPRLPRPRPRPFNDPRP | -0.0288
57 | RRIRNRPPRLPRPRPRPFNTPRP | -0.765
58 | RRIRNRPPRLPRPRPRPFQLPRP | -0.228
59 | RRIRNRPPRLPRPRPRPFRQPRP | 0.0231
60 | RRIRNRPPRLPRPRPRPFRSPRP | 0.033
61 | RRIRNRPPRLPRPRPRPFSKPRP | -0.303
62 | RRIRNRPPRLPRPRPRPFSVPRP | -0.678
63 | RRIRNRPPRLPRPRPRPFTEPRP | -0.236
64 | RRIRNRPPRLPRPRPRPFTNPRP | 0.00408
65 | RRIRNRPPRLPRPRPRPFVIPRP | -0.528
66 | RRIRNRPPRLPRPRPRPFWEPRP | -0.372
67 | RRIRNRPPRLPRPRPRPFWLPRP | -0.189
68 | RRIRNRPPRLPRPRPRPFWQPRP | 0.201
69 | RRIRNRPPRLPRPRPRPFYRPRP | -0.131
70 | RRIRNRPPRLPRPRPRPGAGPRP | 0.234
71 | RRIRNRPPRLPRPRPRPGCSPRP | 0.121
72 | RRIRNRPPRLPRPRPRPGDNPRP | 0.0229
73 | RRIRNRPPRLPRPRPRPGEFPRP | -0.00204
74 | RRIRNRPPRLPRPRPRPGGYPRP | -0.0538
75 | RRIRNRPPRLPRPRPRPGHVPRP | -0.0552

Row | Sequence | shrunken log2 fold change
76 | RRIRNRPPRLPRPRPRPGIPPRP | -0.0284
77 | RRIRNRPPRLPRPRPRPGLLPRP | -0.171
78 | RRIRNRPPRLPRPRPRPGMMPRP | -0.247
79 | RRIRNRPPRLPRPRPRPGNVPRP | -0.107
80 | RRIRNRPPRLPRPRPRPGPVPRP | 0.127
81 | RRIRNRPPRLPRPRPRPGQCPRP | 0.0172
82 | RRIRNRPPRLPRPRPRPGQFPRP | -0.0134
83 | RRIRNRPPRLPRPRPRPGQTPRP | 0.00913
84 | RRIRNRPPRLPRPRPRPGRFPRP | 0.327
85 | RRIRNRPPRLPRPRPRPGSVPRP | -0.0436
86 | RRIRNRPPRLPRPRPRPGTEPRP | -0.145
87 | RRIRNRPPRLPRPRPRPGTFPRP | -0.281
88 | RRIRNRPPRLPRPRPRPGVFPRP | 0.117
89 | RRIRNRPPRLPRPRPRPGVNPRP | 0.0306
90 | RRIRNRPPRLPRPRPRPGVVPRP | 0.176
91 | RRIRNRPPRLPRPRPRPGWEPRP | 1.72
92 | RRIRNRPPRLPRPRPRPHCLPRP | -0.466
93 | RRIRNRPPRLPRPRPRPHCWPRP | 0.0498
94 | RRIRNRPPRLPRPRPRPHEMPRP | -0.33
95 | RRIRNRPPRLPRPRPRPHFRPRP | 0.0231
96 | RRIRNRPPRLPRPRPRPHFYPRP | -0.816
97 | RRIRNRPPRLPRPRPRPHGIPRP | -0.154
98 | RRIRNRPPRLPRPRPRPHGYPRP | -0.066
99 | RRIRNRPPRLPRPRPRPHHHPRP | -0.617
100 | RRIRNRPPRLPRPRPRPHHKPRP | -0.461

Row | Sequence | shrunken log2 fold change
101 | RRIRNRPPRLPRPRPRPHIDPRP | -0.186
102 | RRIRNRPPRLPRPRPRPHIHPRP | -0.445
103 | RRIRNRPPRLPRPRPRPHKSPRP | -0.298
104 | RRIRNRPPRLPRPRPRPHKVPRP | -0.513
105 | RRIRNRPPRLPRPRPRPHLCPRP | 0.183
106 | RRIRNRPPRLPRPRPRPHLMPRP | -0.584
107 | RRIRNRPPRLPRPRPRPHNRPRP | 0.0237
108 | RRIRNRPPRLPRPRPRPHNTPRP | -0.643
109 | RRIRNRPPRLPRPRPRPHNWPRP | -0.391
110 | RRIRNRPPRLPRPRPRPHPNPRP | 0.0207
111 | RRIRNRPPRLPRPRPRPHQLPRP | -0.0583
112 | RRIRNRPPRLPRPRPRPHQRPRP | 0.244
113 | RRIRNRPPRLPRPRPRPHRTPRP | -0.827
114 | RRIRNRPPRLPRPRPRPHSGPRP | -0.517
115 | RRIRNRPPRLPRPRPRPHSTPRP | -0.412
116 | RRIRNRPPRLPRPRPRPHSYPRP | 0.132
117 | RRIRNRPPRLPRPRPRPHTVPRP | -0.118
118 | RRIRNRPPRLPRPRPRPHWQPRP | -0.115
119 | RRIRNRPPRLPRPRPRPIAKPRP | -0.000903
120 | RRIRNRPPRLPRPRPRPIEIPRP | 0.0194
121 | RRIRNRPPRLPRPRPRPIFAPRP | 0.111
122 | RRIRNRPPRLPRPRPRPIFMPRP | -0.116
123 | RRIRNRPPRLPRPRPRPIFRPRP | -0.0067
124 | RRIRNRPPRLPRPRPRPIGVPRP | 0.249
125 | RRIRNRPPRLPRPRPRPIIRPRP | -0.00165

Row | Sequence | shrunken log2 fold change
126 | RRIRNRPPRLPRPRPRPIKNPRP | -0.108
127 | RRIRNRPPRLPRPRPRPILMPRP | -0.0495
128 | RRIRNRPPRLPRPRPRPIQGPRP | -0.105
129 | RRIRNRPPRLPRPRPRPIQNPRP | -0.139
130 | RRIRNRPPRLPRPRPRPIRWPRP | 0.18
131 | RRIRNRPPRLPRPRPRPISFPRP | -0.0972
132 | RRIRNRPPRLPRPRPRPISSPRP | -0.0365
133 | RRIRNRPPRLPRPRPRPISVPRP | -0.00409
134 | RRIRNRPPRLPRPRPRPIWPPRP | 0.152
135 | RRIRNRPPRLPRPRPRPIYGPRP | -0.224
136 | RRIRNRPPRLPRPRPRPIYWPRP | 0.0553
137 | RRIRNRPPRLPRPRPRPKARPRP | -0.00166
138 | RRIRNRPPRLPRPRPRPKAVPRP | 0.301
139 | RRIRNRPPRLPRPRPRPKCCPRP | -0.0855
140 | RRIRNRPPRLPRPRPRPKDGPRP | -0.00992
141 | RRIRNRPPRLPRPRPRPKEMPRP | -0.0529
142 | RRIRNRPPRLPRPRPRPKFCPRP | -0.198
143 | RRIRNRPPRLPRPRPRPKHMPRP | -0.382
144 | RRIRNRPPRLPRPRPRPKIEPRP | -0.0398
145 | RRIRNRPPRLPRPRPRPKISPRP | -0.484
146 | RRIRNRPPRLPRPRPRPKLTPRP | 2
147 | RRIRNRPPRLPRPRPRPKMHPRP | -0.0913
148 | RRIRNRPPRLPRPRPRPKMKPRP | -0.286
149 | RRIRNRPPRLPRPRPRPKMRPRP | 0.313
150 | RRIRNRPPRLPRPRPRPKMTPRP | -0.149
